Measured values taken from patent US20180346600.

Tests used:
Assay in all cases: HEK293-F co-expression, Protein A purification, non-reducing SDS-PAGE densitometry
[1] = target: FcCH3B, A205 (E357N/K370R)
[2] = target: FcCH3B, A210 (E357N/K370H)
FcCH3B, A216 (E357N) = target: FcCH3B, A216 (E357N)
FcCH3B, A241 (E357N) = target: FcCH3B, A241 (E357N)
[3] = target: T1, FcCH3B, B215 (D399W/K392G/K409M)
T1 chain: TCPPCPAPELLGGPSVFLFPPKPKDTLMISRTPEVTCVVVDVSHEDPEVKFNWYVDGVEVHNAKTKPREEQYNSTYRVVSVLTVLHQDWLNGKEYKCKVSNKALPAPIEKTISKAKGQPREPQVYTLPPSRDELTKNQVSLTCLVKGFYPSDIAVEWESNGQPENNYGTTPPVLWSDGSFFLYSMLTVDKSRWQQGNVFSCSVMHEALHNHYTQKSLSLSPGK

[4] = target: T2, FcCH3B, B240 (D399G/K392G/K409M)
T2 chain: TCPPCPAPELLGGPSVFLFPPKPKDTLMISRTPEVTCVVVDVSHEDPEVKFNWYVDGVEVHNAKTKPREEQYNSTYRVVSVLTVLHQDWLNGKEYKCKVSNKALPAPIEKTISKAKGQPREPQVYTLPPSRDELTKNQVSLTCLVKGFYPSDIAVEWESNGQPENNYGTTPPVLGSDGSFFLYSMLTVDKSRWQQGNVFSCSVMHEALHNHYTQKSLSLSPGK

B1: scFv-FcCH3A, A205 (E357D/S364W/K370E) (protein)
chain: TCPPCPAPELLGGPSVFLFPPKPKDTLMISRTPEVTCVVVDVSHEDPEVKFNWYVDGVEVHNAKTKPREEQYNSTYRVVSVLTVLHQDWLNGKEYKCKVSNKALPAPIEKTISKAKGQPREPQVYTLPPSRDDLTKNQVWLTCLVEGFYPSDIAVEWESNGQPENNYKTTPPVLDSDGSFFLYSKLTVDKSRWQQGNVFSCSVMHEALHNHYTQKSLSLSPGK
[1]
  (scFv-Fc)(Fc) (heterodimer)(%): 88.8%

B2: scFv-FcCH3A, A210 (E357A/S364Y/K370E) (protein)
chain: TCPPCPAPELLGGPSVFLFPPKPKDTLMISRTPEVTCVVVDVSHEDPEVKFNWYVDGVEVHNAKTKPREEQYNSTYRVVSVLTVLHQDWLNGKEYKCKVSNKALPAPIEKTISKAKGQPREPQVYTLPPSRDALTKNQVYLTCLVEGFYPSDIAVEWESNGQPENNYKTTPPVLDSDGSFFLYSKLTVDKSRWQQGNVFSCSVMHEALHNHYTQKSLSLSPGK
[2]
  (scFv-Fc)(Fc) (heterodimer)(%): 80.8%

B3: scFv-FcCH3A, A216 (E357G/S364W/K370E) (protein)
chain: TCPPCPAPELLGGPSVFLFPPKPKDTLMISRTPEVTCVVVDVSHEDPEVKFNWYVDGVEVHNAKTKPREEQYNSTYRVVSVLTVLHQDWLNGKEYKCKVSNKALPAPIEKTISKAKGQPREPQVYTLPPSRDGLTKNQVWLTCLVEGFYPSDIAVEWESNGQPENNYKTTPPVLDSDGSFFLYSKLTVDKSRWQQGNVFSCSVMHEALHNHYTQKSLSLSPGK
FcCH3B, A216 (E357N)
  (scFv-Fc)(Fc) (heterodimer)(%): 80.3%

B4: scFv-FcCH3A, A241 (E357N/S364W/K370E) (protein)
chain: TCPPCPAPELLGGPSVFLFPPKPKDTLMISRTPEVTCVVVDVSHEDPEVKFNWYVDGVEVHNAKTKPREEQYNSTYRVVSVLTVLHQDWLNGKEYKCKVSNKALPAPIEKTISKAKGQPREPQVYTLPPSRDNLTKNQVWLTCLVEGFYPSDIAVEWESNGQPENNYKTTPPVLDSDGSFFLYSKLTVDKSRWQQGNVFSCSVMHEALHNHYTQKSLSLSPGK
FcCH3B, A241 (E357N)
  (scFv-Fc)(Fc) (heterodimer)(%): 81%

B5: scFv-FcCH3A, B215 (K392R/K409R/D399L) (protein)
chain: TCPPCPAPELLGGPSVFLFPPKPKDTLMISRTPEVTCVVVDVSHEDPEVKFNWYVDGVEVHNAKTKPREEQYNSTYRVVSVLTVLHQDWLNGKEYKCKVSNKALPAPIEKTISKAKGQPREPQVYTLPPSRDELTKNQVSLTCLVKGFYPSDIAVEWESNGQPENNYRTTPPVLLSDGSFFLYSRLTVDKSRWQQGNVFSCSVMHEALHNHYTQKSLSLSPGK
[3]
  (scFv-Fc)(Fc) (heterodimer)(%): 78.1%

B6: scFv-FcCH3A, B240 (K392S/K409R/D399L) (protein)
chain: TCPPCPAPELLGGPSVFLFPPKPKDTLMISRTPEVTCVVVDVSHEDPEVKFNWYVDGVEVHNAKTKPREEQYNSTYRVVSVLTVLHQDWLNGKEYKCKVSNKALPAPIEKTISKAKGQPREPQVYTLPPSRDELTKNQVSLTCLVKGFYPSDIAVEWESNGQPENNYSTTPPVLLSDGSFFLYSRLTVDKSRWQQGNVFSCSVMHEALHNHYTQKSLSLSPGK
[4]
  (scFv-Fc)(Fc) (heterodimer)(%): 83.3%
